What all share (test): Steady-state kinetics of 2-ketoacid decarboxylase (ADH/NADH coupled)
What all share (assay type): biochemical
Common to all, as to conditions: other: pH 7.5, 21° C.

The test system of one data set is CCCCCCC(=O)C(=O)O. As for the experimental part:
(§1) For the native KIVD and KIVD_VLV mutant, 2 ml overnight cultures of XL1B cells were transformed with pQE9 containing N-terminal his-tagged KIVD enzymes and grown in Terrific Broth (BP biomedical, Cat#3046-042) with 50 μg/mL of carbenicillin. (Fisher scientific, Cat# BP2648-5) For the GEOs, 2 ml overnight cultures of BLR cells were transformed with pet29b+ plasmid containing N-terminal his-tagged GEOs, and grown in Terrific Broth with 50 μg/mL of kanamycin. (Fisher scientific, Cat# BP906-5) These cultures were diluted 1:1000 in 500 mL of Terrific Broth with 1 mM MgSO4, 1% glucose, and 50ug/mL of corresponding antibiotics, then grown at 37° C. for 24 hours. Cultures were pelleted down at 4700 rpm for 10 mins and resuspended in auto-induction media (LB broth, 1 mM MgSO4, 0.1 mM TPP, 1×NPS, and 1×5052) for induction at 18° C. for 34 hours. At the end of induction, cells were centrifuged (4700 rpm, 4° C., 20 minutes), supernatant was removed, and cells were resuspended in 40 mL lysis buffer (100 mM Hepes pH 7.5, 100 mM NaCl, 10% glycerol, 0.1 mM TPP, 1 mM MgSO4, 10 mM Imidazole, 1 mM TCEP) and 1 mM PMSF) and sonicated for 2 minutes. Lysed cells were centrifuged at 4700 rpm at 4° C. for 60 mins to remove cell debris. Supernatant was loaded on gravity flow column with 700 μl of cobalt slurry (Fisher scientific, CAT# PI-90091) washed with 10 ml of wash buffer (100 mM Hepes pH 7.5, 100 mM NaCl, 10% glycerol, 0.1 mM TPP, 1 mM MgSO4, 10 mM Imidazole, and 1 mM TCEP). Cobalt bead bed was washed with 15 ml of wash buffer 5 times and proteins were eluted with 1000 μl of elution buffer (100 mM Hepes pH 7.5, 100 mM NaCl, 10% glycerol, 0.1 mM TPP, 1 mM MgSO4, 200 mM Imidazole, and 1 mM TCEP). Protein samples were immediately buffer exchanged with spin concentrators (Satorius, CAT# VS0112) into storage buffer (100 mM Hepes pH 7.5, 100 mM NaCl, 10% glycerol, 0.1 mM TPP, 1 mM MgSO4, and 1 mM TCEP) and stored at 4° C. until kinetics characterization. Protein concentrations were determined using a Synergy H1 spectrophotometer (Biotek) by measuring absorbance at 280 nm using their calculated extinction coefficients with ExPASy ProtParam Tool.^33 All other buffers and salts were purchased from Fisher Scientific unless otherwise specified.
(§2) The kcat and KM values of selective KIVD mutants were measured for the substrates: C3, C5, isoC5, and C8. All substrates were dissolved in MilliQ H2O and pH was adjusted to 7.5 as necessary. Activity was measured at 0.005 mM to 10 mM substrates. The assay was performed in a 96-well half-area plate. Each reaction contains a final concentration of 0.5 mM NADH, 1 mM DTT, 0.1 mM TPP, 1 mM MgSO4, reaction buffer (100 mM Hepes, 100 mM NaCl, 10% glycerol, pH 7.5) and ADH (Sigma Aldrich, A7011, 10 U/ml for C3, C5 and C8 reactions, 500 U/ml for isoC5 reactions). A wide range of ketoacid decarboxylase concentrations, 4.5 nM-15 μM, were used according to the activity of each enzyme toward different substrates in order to perform steady state kinetics measurement over a period of an hour. Absorbance readings were taken every 1-minute at OD340 at 21° C. for 60 minutes using the Synergy H1. Kinetic parameters (kcat and KM) were determined by fitting initial velocity versus substrate concentration data to the Michaelis-Menten equation.

The test system of a further data set is CC(C)C(=O)C(=O)O. The protocol:
as §1, §2

Another data set has as its system CC(=O)C(=O)O. The protocol: as §1, §2
The test system of a further data set is CCCC(=O)C(=O)O. As for the experimental part: as §1, §2

The Km is the concentration of substrate that gives half-maximal velocity. One may read the kcat as the maximal rate divided by the concentration of active sites. Broadly, the kcat/Km is the turnover number divided by the Michaelis constant. With “1OVM (1OVM_P23234), ketoacid decarboxylase, SEQ ID NO: 26 (Enterobacter cloacae)”, the Km in the data set on CCCCCCC(=O)C(=O)O came out at 0.021 ± 0.001 mM; in the data set with CC(C)C(=O)C(=O)O it was 6.1 ± 0.6 mM; with CC(=O)C(=O)O, 7.5 ± 0.1 mM; with CCCC(=O)C(=O)O, 0.5 ± 0.1 mM. Moreover, the kcat stood at 1.7 ± 0.1 s⁻¹ in the data set with CCCCCCC(=O)C(=O)O, 7.8 ± 0.4 s⁻¹ with CC(C)C(=O)C(=O)O, 0.2 ± 0.01 s⁻¹ in the data set on CC(=O)C(=O)O and 1 ± 0.1 s⁻¹ in the data set with CCCC(=O)C(=O)O. For the same substance, the kcat/Km was 80000 ± 4300 M⁻¹ s⁻¹ with CCCCCCC(=O)C(=O)O, 1300 ± 130 M⁻¹ s⁻¹ in the data set on CC(C)C(=O)C(=O)O, 32 ± 0.5 M⁻¹ s⁻¹ with CC(=O)C(=O)O and 2100 ± 420 M⁻¹ s⁻¹ in the data set with CCCC(=O)C(=O)O.
